According to patent US20150004637A1, “SYSTEMS AND METHODS FOR IMAGING AT HIGH SPATIAL AND/OR TEMPORAL PRECISION” (President and Fellows of Harvard College, priority 2011, published 2015):
Entries after “also recorded” stand apart in the source; their conditions may differ. Like-named read-outs stand apart in the source and are kept apart here.

Assays:
[1] = Relative photostability of Arch and eGFP (photobleaching of Arch-eGFP fusion); type: physicochemical; conditions: measured in a 1:1 fusion with eGFP
Method: (3) Relative photostability of Arch and eGFP. To perform a direct comparison of photostability of Arch and eGFP the photobleaching of the Arch-eGFP fusion was studied. This strategy guaranteed a 1:1 stoichiometry of the two fluorophores, simplifying the analysis. The experiments were performed on permeabilized cells, in the microscope, with video recording as the cells photobleached. A movie of photobleaching of Arch was first recorded under 640 nm illumination; then on the same field of view photobleaching of eGFP under 488 nm illumination was recorded, with illumination intensity adjusted to yield approximately the same initial count rate as for Arch. Fluorescence background levels were obtained from nearby protein-free regions of each movie and were subtracted from the intensity of the protein-containing regions. The area under each photobleaching timetrace was calculated, yielding an estimate of the total number of detected photons from each fluorophore. The eGFP emission (lambda-max=509 nm) and the Arch emission (lambda-max=687 nm) were collected through different emission filters, so the raw counts were corrected for the transmission spectra of the filters and the wavelength-dependent quantum yield of the EMCCD camera. The result was that the relative number of photons emitted prior to photobleaching for eGFP:Arch WT was 3.9:1, and for eGFP:ArchD95N this ratio was 10:1.

HEK cells [2] = test: Step response of fluorescence to membrane potential steps; type: cell-based; conditions: for Approx response time: Table 2, described herein; for τresponse: determined from step-response
Method: The step response was measured in a similar manner, except that test waveforms consisted of a series of voltage pulses, from −70 mV to +30 mV with duration 300 ms and period 1 s. Cells were subjected to 20 repetitions of the waveform, and the fluorescence response was averaged over all iterations.

HEK cells [3] = test: Frequency response and noise of membrane potential estimated from fluorescence; type: cell-based; conditions: for noise / accuracy of voltage estimated from fluorescence: HEK cells, after calibration with voltage ramp −150 to +150 mV; for Noise in V̂FL: frequencies f≧0.1 Hz in HEK cells
Method: For the data of FIG. 9, a chirped sine wave with an amplitude of about 50 mV and frequency from about 1 Hz to about 1 kHz was applied to the cell. Membrane potential VFL was determined from fluorescence and the Fourier transform of VFL was calculated. The uptick at about 1 kHz is an artifact of electronic compensation circuitry. […] The noise figures reported here are specific to our imaging system and serve primarily as an indicator of the possible sensitivity of Arch.
(8) Frequency-dependent response functions of Arch WT and D95N. Test waveforms consisted of a concatenated series of sine waves, each of duration 2 s, amplitude 100 mV, zero mean, and frequencies uniformly spaced on a logarithmic scale between 1 Hz and 1 kHz (31 frequencies total). The waveforms were discretized at 10 kHz and applied to the cell, while fluorescence movies were acquired at a frame rate of 2 kHz.
The model parameters for extracting VFL(t) were calculated from the fluorescence response to low frequency voltages. These parameters were then used to calculate an estimated voltage at all frequencies.
The applied voltage was downsampled to 2 kHz to mimic the response of a voltage indicator with instantaneous response. For each applied frequency, the Fourier transform of VFL(t) was calculated and divided by the Fourier transform of the downsampled V(t). The amplitude of this ratio determined the response sensitivity. It was important in some cases to properly compensate pipette resistance and cell membrane capacitance to obtain accurate response spectra.
The power spectrum of VFL(t) under constant V=0 was also measured to enable calculations of signal-to-noise ratio for any applied V(t).
In these examples, a measure of the performance of a voltage indicator which reported the information content of the fluorescence signal was used, including an algorithm to infer membrane potential from a series of fluorescence images. The accuracy with which the estimated membrane potential matched the true membrane potential was used (as reported by patch clamp recording) as a measure of indicator performance.
The estimated membrane potential, VFL(t), was determined from the fluorescence in two steps. First a model was trained relating membrane potential to fluorescence at each pixel. A highly simplified model that the fluorescence signal, Si(t), at pixel i and time t, is given by: […]

HEK cells [4] = test: Photocurrents under voltage clamp; type: cell-based; conditions: for Photocurrent: HEK cells clamped at V=0, 640 nm, 1800 W/cm^2
Method: Measurements of photocurrents were performed on HEK cells held in voltage clamp at 0 mV while being exposed to brief (200 ms) pulses of illumination at 640 nm at an intensity of 1800 W/cm^2.

[5] = system: cultured rat hippocampal neurons; test: Optical recording of action potentials in cultured neurons; type: cell-based
Method: Arch was tested as a voltage indicator in cultured rat hippocampal neurons, using viral delivery (Methods 10-11). […] Individual spikes were accompanied by clearly identifiable increases of whole-field fluorescence (FIG. 11B). Preferentially weighting pixels whose intensity co-varied with the whole-field fluorescence led to an about 74% improvement in SNR (FIG. 11C). This training procedure made no use of the electrical recording. Training the pixel-weighting algorithm on the electrical recording led to a further 5% increase in SNR. (FIG. 11D).
(11) Neuronal cell culture. E18 rat hippocampi were purchased from BrainBits and mechanically dissociated in the presence of 1 mg/mL papain (Worthington) before plating at 5,000 to 30,000 cells per dish on poly-L-lysine and Matrigel-coated (BD Biosciences) glass-bottom dishes. […] Cells were incubated in N+ medium (100 mL Neurobasal medium, 2 mL B27 supplement, 0.5 mM glutamine, 25 micromolar glutamate, penicillin-streptomycin) for 3 hours. An additional 300 microliter virus medium was added to the cells and incubated overnight, then brought to a final volume of 2 mL N+ medium. After two days, cells were fed with 1.5 mL N+ medium. Cells were fed with 1 mL N+ medium without glutamate at 4 DIV, and fed 1 mL every 3-4 days after. Cells were allowed to grow until 10-14 DIV. […]
Whole-cell current clamp recordings were obtained from mature neurons under the same conditions used for HEK cells recordings. Series resistance and pipette capacitance were corrected. Only neurons having resting potentials between −50 and −70 mV were used in the analysis.
(12) Spike sorting. A spike identification algorithm was developed that could be applied either to electrically recorded V(t) or to optically determined VFL(t). The input trace was convolved with a reference spike. Sections of the convolved waveform that crossed a user-defined threshold were identified as putative spikes. Multiple spikes that fell within 10 ms (a consequence of noise-induced glitches near threshold) were clustered and identified as one.

[6] = steps between −70 mV and +30 mV

B1: Arch D95N: Archaerhodopsin 3 with aspartic acid 95 mutated to asparagine; non-pumping voltage indicator (protein, UniProt P96787 7-258, looked up, variant D95N)
Archaerhodopsin-3: QAGYDLLGDGRPETLWLGIGTLLMLIGTFYFLVRGWGVTDKDAREYYAVTILVPGIASAAYLSMFFGIGLTEVTVGGEMLDIYYARYANWLFTTPLLLLDLALLAKVDRVTIGTLVGVDALMIVTGLIGALSHTAIARYSWWLFSTICMIVVLYFLATSLRSAAKERGPEVASTFNTLTALVLVLWTAYPILWIIGTEGAGVVGLGIETLLFMVLDVTAKVGFGFILLRSRAILGDTEAPEPSAGADVSAAD
Question: Which results are given for B1?
Answer: Photostability relative to eGFP [1]: 0.1; response time (HEK cells [2]): 41 ms; Approx response time (HEK cells [2]): 41 ms; τresponse (HEK cells [2]): 41 ms; response time (HEK cells [2]; listed as Arch 3 D95N): 40 ms; fast component of step response (HEK cells [2]; [6]): < 500 μs; fraction of step response that is fast (HEK cells [2]; [6]): about 20%; time constant of slow component of step response (HEK cells [2]; [6]): 41 ms; fraction of step response that is fast (HEK cells [2]; steps between −70 mV and +30 mV, listed as ArchD95N): 20%; noise / accuracy of voltage estimated from fluorescence (HEK cells [3]): 260 μV/(Hz)^1/2; Noise in V̂FL (HEK cells [3]): 260 μV/Hz^1/2; photocurrent / proton pumping (words) (HEK cells [4]): lacked endogenous proton pumping; Photocurrent (HEK cells [4]): no; photocurrent / proton pumping (words) (HEK cells [4]; listed as Arch 3 D95N): lacks photoinduced proton pumping; photocurrent / proton pumping (words) (HEK cells [4]; listed as D95N): eliminated the photocurrent; effect of illumination on membrane potential / spiking in neurons ([5]; I=1800 W/cm^2, λ=640 nm): did not perturb membrane potential; also recorded: no effect of illumination on spiking or resting potential

B2: Archaerhodopsin 3 (protein)
chain: MDPIALQAGYDLLGDGRPETLWLGIGTLLMLIGTFYFLVRGWGVTDKDAREYYAVTILVPGIASAAYLSMFFGIGLTEVTVGGEMLDIYYARYADWLFTTPLLLLDLALLAKVDRVTIGTLVGVDALMIVTGLIGALSHTAIARYSWWLFSTICMIVVLYFLATSLRSAAKERGPEVASTFNTLTALVLVLWTAYPILWIIGTEGAGVVGLGIETLLFMVLDVTAKVGFGFILLRSRAILGDTEAPEPSAGADVSAAD
modifications: Halorubrum sodomense
notes: Microbial rhodopsin from Halorubrum sodomense, light-driven proton pump used as fluorescent voltage indicator; experiments used an Arch-eGFP fusion
Question: Which results are given for B2?
Answer: Photostability relative to eGFP [1]: 0.25; time for 90% of step response (HEK cells [2]): < 0.5 ms; Approx response time (HEK cells [2]): <0.5 ms; τresponse (HEK cells [2]): < 0.5 ms; noise / accuracy of voltage estimated from fluorescence (HEK cells [3]): about 625 μV/(Hz)^1/2; Noise in V̂FL (HEK cells [3]): 625 μV/Hz^1/2; fluorescence oscillation amplitude retained relative to low-frequency amplitude (HEK cells [3]; sinusoidal membrane potential, f≈1 kHz): about 55%; shot-noise limited noise floor in V̂FL (HEK cells [3]; voltage clamp at constant V=0 mV, frequencies above about 10 Hz): about 470 μV/(Hz)^1/2; Photocurrent (HEK cells [4]): yes; outward photocurrent induced by imaging laser (HEK cells [4]; HEK cells, 640 nm): 10-20 pA; optical signal-to-noise ratio of single electrically triggered action potentials [5]: greater than 10; increase in fluorescence after addition of supplemental retinal ([5]; 10 μM retinal, over 30 minutes, neuron depolarized with CCCP): 30-60%; signal-to-noise ratio in the fluorescence (spike amplitude:baseline noise) ([5]; 2 kHz frame rate, single trial): about 10.5; light-induced outward photocurrent in neurons ([5]; I=1800 W/cm^2, total internal reflection mode): about 10 pA; shift of resting potential by photocurrent ([5]; current-clamp, I=1800 W/cm^2): up to −20 mV; false-positive rate of spike identification ([5]; n=269 spikes): 0.7%; spikes correctly identified by spike-finding algorithm ([5]; n=269 spikes, versus simultaneously recorded membrane potential): 99.6%; r.m.s. deviation between fluorescence and voltage ([5]; pixel weights from correlation to electrophysiology data): 4.0 mV; r.m.s. deviation of fluorescence from electrophysiology data ([5]; pixel weights from correlation to whole-field intensity): 4.2 mV; r.m.s. deviation of fluorescence from electrophysiology data ([5]; whole-field fluorescence, single trial, 500 frames/s): 7.3 mV
